Test results taken from IntAct's records for PubMed 17909018.

B1: Cyclin-dependent kinase inhibitor 2A (Homo sapiens), P42771 (parent)
chain: MEPAAGSSMEPSADWLATAAARGRVEEVRALLEAGALPNAPNSYGRRPIQVMMMGSARVAELLLLHGAEPNCADPATLTRPVHDAAREGFLDTLVVLHRAGARLDVRDAWGRLPVDLAEELGHRDVARYLRAAAGGTRGSNHARIDAAEGPSDIPD

Experiments:
[1] = variants of: B1; conditions: with cdk4_human CDK4, P11802
[2] = variants of: B1; conditions: with cdk4_human CDK4, P11802; remark: listed apart in the source
[3] = variants of: B1; conditions: with cdk6_human CDK6, Q00534
Sequence of cdk6_human CDK6, Q00534 (Q00534 whole entry): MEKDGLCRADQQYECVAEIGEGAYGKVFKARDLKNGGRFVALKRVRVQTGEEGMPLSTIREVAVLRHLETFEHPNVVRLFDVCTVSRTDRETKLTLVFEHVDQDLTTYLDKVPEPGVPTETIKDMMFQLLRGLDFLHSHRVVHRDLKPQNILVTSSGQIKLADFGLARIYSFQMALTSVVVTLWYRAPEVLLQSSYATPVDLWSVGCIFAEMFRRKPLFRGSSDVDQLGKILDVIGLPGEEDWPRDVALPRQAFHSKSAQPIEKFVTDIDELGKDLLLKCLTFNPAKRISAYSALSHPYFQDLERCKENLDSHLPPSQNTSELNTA

Sequence of cdk4_human CDK4, P11802 (P11802 whole entry): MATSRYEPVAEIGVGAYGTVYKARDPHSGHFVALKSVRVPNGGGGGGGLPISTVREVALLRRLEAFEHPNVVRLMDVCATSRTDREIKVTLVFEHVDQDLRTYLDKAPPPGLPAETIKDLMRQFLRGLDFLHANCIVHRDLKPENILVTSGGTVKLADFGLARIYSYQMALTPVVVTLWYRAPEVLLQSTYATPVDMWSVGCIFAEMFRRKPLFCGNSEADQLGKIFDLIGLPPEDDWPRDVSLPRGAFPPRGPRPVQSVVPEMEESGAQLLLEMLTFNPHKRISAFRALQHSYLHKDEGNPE

| Variant | effect of a mutation on the interaction [1] | effect of a mutation on the interaction [2] | effect of a mutation on the interaction [3] |
| --- | --- | --- | --- |
| R24P | disrupting interaction | – | – |
| A20P | disrupting interaction | disrupting interaction strength | disrupting interaction |
